One substance from patent publication US20230416362A1 can be followed below.

What is called EC50 is the concentration needed to bring the measured effect to its halfway point. What is called IC50 is the concentration at which inhibition is half-maximal.

Experiment [1] concerns the target mTIGIT (ELISA of Table 7) (mouse) (UniProt P86176). As to the kind of experiment: ELISA binding. For orientation: ELISA stands for enzyme-linked immunosorbent assay.
Experiment [2] shares this target. As to the kind of experiment: mTIGIT/mCD155 competition ELISA; competitor mCD155.

Sequence of mTIGIT (ELISA of Table 7) (mouse) (P86176 29-145 limits assumed): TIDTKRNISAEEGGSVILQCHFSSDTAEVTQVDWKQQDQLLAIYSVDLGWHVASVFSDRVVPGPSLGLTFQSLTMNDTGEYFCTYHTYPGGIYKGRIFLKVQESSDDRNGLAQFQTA

For 1G9 (Bio X Cell, #BE0150) (antibody), the EC50 in experiment [1] stood at 0.3 nM. For the same substance, the IC50 in experiment [2] came out at 1.5 nM.
